Assay results published in paper PMC6579465.

Target: CAPS1 (calcium-dependent activator protein for secretion, CADPS) (rat (endogenous in rat brain)) (UniProt Q62717)
Assay: affinity purification with mass spectrometry; CAPS1 immunoprecipitate of detergent extract resolved by SDS-PAGE; Coomassie-stained bands seen in the CAPS1 but not the control immunoprecipitate excised, in-gel digests, LC-MS/MS

CAPS1 (calcium-dependent activator protein for secretion, CADPS) (rat (endogenous in rat brain)), sequence (Q62717 whole entry): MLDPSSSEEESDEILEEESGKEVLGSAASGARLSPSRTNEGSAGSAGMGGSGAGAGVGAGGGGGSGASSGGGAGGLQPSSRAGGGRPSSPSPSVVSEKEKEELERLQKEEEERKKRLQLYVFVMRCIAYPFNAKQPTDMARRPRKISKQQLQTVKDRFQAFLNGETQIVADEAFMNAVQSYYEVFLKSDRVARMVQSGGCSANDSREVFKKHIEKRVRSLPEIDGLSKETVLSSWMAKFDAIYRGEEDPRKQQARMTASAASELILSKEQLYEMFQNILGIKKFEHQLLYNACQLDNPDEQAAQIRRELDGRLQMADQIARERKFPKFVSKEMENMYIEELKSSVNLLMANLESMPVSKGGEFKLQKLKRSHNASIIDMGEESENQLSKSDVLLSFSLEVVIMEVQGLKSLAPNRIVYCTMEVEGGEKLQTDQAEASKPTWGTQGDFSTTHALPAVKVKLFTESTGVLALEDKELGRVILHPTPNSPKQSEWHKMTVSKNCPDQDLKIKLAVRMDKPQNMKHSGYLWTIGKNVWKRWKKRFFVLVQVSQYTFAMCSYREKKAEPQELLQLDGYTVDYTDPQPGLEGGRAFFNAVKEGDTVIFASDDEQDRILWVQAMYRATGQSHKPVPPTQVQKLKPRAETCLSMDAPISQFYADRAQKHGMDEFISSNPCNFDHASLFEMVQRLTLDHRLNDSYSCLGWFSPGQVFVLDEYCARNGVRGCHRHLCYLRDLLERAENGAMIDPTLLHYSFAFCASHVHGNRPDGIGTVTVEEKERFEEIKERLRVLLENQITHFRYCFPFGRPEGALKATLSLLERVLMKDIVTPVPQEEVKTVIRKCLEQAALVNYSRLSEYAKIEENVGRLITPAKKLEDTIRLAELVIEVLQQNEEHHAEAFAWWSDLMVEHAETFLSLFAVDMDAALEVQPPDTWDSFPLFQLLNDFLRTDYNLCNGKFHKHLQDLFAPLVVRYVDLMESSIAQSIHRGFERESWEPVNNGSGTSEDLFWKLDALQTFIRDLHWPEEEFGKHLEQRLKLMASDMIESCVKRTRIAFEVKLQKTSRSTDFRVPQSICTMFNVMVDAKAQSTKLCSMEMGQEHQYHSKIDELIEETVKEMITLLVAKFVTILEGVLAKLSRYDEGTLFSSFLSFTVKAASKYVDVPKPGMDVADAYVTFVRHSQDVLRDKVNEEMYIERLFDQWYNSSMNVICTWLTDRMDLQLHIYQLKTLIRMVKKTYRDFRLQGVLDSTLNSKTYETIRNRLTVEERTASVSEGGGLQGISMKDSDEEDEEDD

stoichiometry relative to CAPS1 (bands of the immunoprecipitate) (Rbcn3 subunit : CAPS1): 0.167
Substance: Rabconnectin3α (Rbcn3α) / Dmx-like 2 (DMXL2) (natural protein)
